Reference: US6500940 (SALK INSTITUTE FOR BIOLOGICAL STUDIES, dated 2002)

How the values were obtained:
human Fas (human) = human Fas (human) (UniProt P25445); assay: cell-based or functional assay
human FADD = target: T1, human FADD (human, UniProt Q13158 1-208, limits assumed); assay: co-immunoprecipitation and immunoblot after transient transfection
T1 construct: also called MORT-1
T1 sequence (looked up): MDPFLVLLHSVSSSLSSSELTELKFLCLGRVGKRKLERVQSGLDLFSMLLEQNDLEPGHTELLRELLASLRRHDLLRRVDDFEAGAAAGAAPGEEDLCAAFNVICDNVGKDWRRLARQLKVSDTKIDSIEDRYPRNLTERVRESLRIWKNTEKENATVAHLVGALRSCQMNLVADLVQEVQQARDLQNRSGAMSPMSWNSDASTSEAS
Text: The interaction of LFG with components of the Fas signaling pathway was investigated. Fas and LFG can be co-immunoprecipitated following transient transfection.

Sequence of human Fas (human) (P25445 26-335): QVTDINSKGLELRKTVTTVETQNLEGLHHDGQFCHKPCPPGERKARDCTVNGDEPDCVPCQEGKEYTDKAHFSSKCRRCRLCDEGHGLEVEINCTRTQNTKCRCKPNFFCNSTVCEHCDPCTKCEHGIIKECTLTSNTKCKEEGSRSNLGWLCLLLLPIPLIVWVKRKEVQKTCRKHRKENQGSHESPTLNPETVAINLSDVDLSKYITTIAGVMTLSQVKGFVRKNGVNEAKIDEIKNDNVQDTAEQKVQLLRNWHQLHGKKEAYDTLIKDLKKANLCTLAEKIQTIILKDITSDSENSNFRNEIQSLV

Molecule	cell survival of HeLa cells 72 hr after treatment with CH11 (human Fas (human))	binding result (human FADD)
mouse anti-human Fas agonistic antibody (CH11)	17%	
amino-terminal myc epitope-tagged LFG (myc-LFG) (other, not shown: small tags and cut ends, Expressed from an expression vector by transient transfection (HeLa, 293 cells) and found by immunoprecipitation and immunoblot; also called lifeguard) MTRGKLSVANKAPGTEGQQQVHGEKKEAPAVPSAPPSYEEATSGEGMKAGAFPPAPTAVPLHPSWAYVDPSSSSSYDNGFPPETMSSSPLSAGMTKKVRRVFVRKVYTILLIQLLVTLAVVALFTFCDPCQGLCSGQPGWYWASYAVFFATYLTLACCSGPRRHFPWNLILLTVFTLSMAYLTGMLSSYYNTTSVLLCLGITALVCLSVTVFSFQTKFDFTSCQGVLFVLLMTLFFSGLILAILLPFQYVPWLHAVYAALGAGVFTLFLALDTQLLMGNRRHSLSPEEYIFGALNIYLDIIYIFTFFLQLFGTNRE		no binding
